For five variants, response results are on record in paper PMC11259706 (The Journal of Biological Chemistry, 2024).

B1: Hsp70 10mer peptide Ac-GSGPTIEEVD-OH [modified: N-terminal acetyl; N-terminal acetyl] [not stated] / protein phosphatase 5 (PP5), human, full-length [human] (parent complex)
chain 1: GSGPTIEEVD
chain 2: MAMAEGERTECAEPPRDEPPADGALKRAEELKTQANDYFKAKDYENAIKFYSQAIELNPSNAIYYGNRSLAYLRTECYGYALGDATRAIELDKKYIKGYYRRAASNMALGKFRAALRDYETVVKVKPHDKDAKMKYQECNKIVKQKAFERAIAGDEHKRSVVDSLDIESMTIEDEYSGPKLEDGKVTISFMKELMQWYKDQKKLHRKCAYQILVQVKEVLSKLSTLVETTLKETEKITVCGDTHGQFYDLLNIFELNGLPSETNPYIFNGDFVDRGSFSVEVILTLFGFKLLYPDHFHLLRGNHETDNMNQIYGFEGEVKAKYTAQMYELFSEVFEWLPLAQCINGKVLIMHGGLFSEDGVTLDDIRKIERNRQPPDSGPMCDLLWSDPQPQNGRSISKRGVSCQFGPDVTKAFLEENNLDYIIRSHEVKAEGYEVAHGGRCVTVFSAPNYCDQMGNKASYIHLQGSDLRPQFHQFTAVPHPNVKPMAYANTLLQLGMM

The variants in this experiment derive from B1. Nature of the experiment: competition fluorescence polarisation; read at the highest peptide concentration, 100 µM; read off a plot. (Fluorescence polarisation rises when a labelled molecule tumbles more slowly, as on binding a larger partner.)
Turning to chain 1 D10A, the response is roughly 110 % tracer bound. On to chain 1 E7A, for which the response was roughly 36 % tracer bound. As for chain 1 I6A, the figure is roughly 12 % tracer bound; as for chain 1 E8A, roughly 74 % tracer bound. For the variant chain 1 V9A, the response was roughly 56 % tracer bound.
